From publication PMC5518878, “Molecular assembly of rhodopsin with G protein-coupled receptor kinases” (Cell Research, 2017)

B1: bovine GRK2 fused to the N-terminus of TEV protease (enzyme, UniProt P21146 1-689, looked up)
chain: MADLEAVLADVSYLMAMEKSKATPAARASKKILLPEPSIRSVMQKYLEDRGEVTFEKIFSQKLGYLLFRDFCLKHLEEAKPLVEFYEEIKKYEKLETEEERLVCSREIFDTYIMKELLACSHPFSKSAIEHVQGHLVKKQVPPDLFQPYIEEICQNLRGDVFQKFIESDKFTRFCQWKNVELNIHLTMNDFSVHRIIGRGGFGEVYGCRKADTGKMYAMKCLDKKRIKMKQGETLALNERIMLSLVSTGDCPFIVCMSYAFHTPDKLSFILDLMNGGDLHYHLSQHGVFSEADMRFYAAEIILGLEHMHNRFVVYRDLKPANILLDEHGHVRISDLGLACDFSKKKPHASVGTHGYMAPEVLQKGVAYDSSADWFSLGCMLFKLLRGHSPFRQHKTKDKHEIDRMTLTMAVELPDSFSPELRSLLEGLLQRDVNRRLGCLGRGAQEVKESPFFRSLDWQMVFLQKYPPPLIPPRGEVNAADAFDIGSFDEEDTKGIKLLDSDQELYRNFPLTISERWQQEVAETVFDTINAETDRLEARKKTKNKQLGHEEDYALGKDCIMHGYMSKMGNPFLTQWQRRYFYLFPNRLEWRGEGEAPQSLLTMEEIQSVEETQIKERKCLLLKIRGGKQFVLQCDSDPELVQWKKELRDAYREAQQLVQRVPKMKNKPRSPVVELSKVPLIQRGSANGL
notes: bovine GRK2; source: HTL cells, transfected (pcDNA3), in cells; not shown: HA or FLAG, C-terminal, kept; TEV protease, C-terminal, kept
B2: H8-MBP-Rho (4M) phosphorylated by purified GRK1 with ATP (receptor, human, UniProt P08100 1-348, looked up)
chain: MCGTEGPNFYVPFSNATGVVRSPFEYPQYYLAEPWQFSMLAAYMFLLIVLGFPINFLTLYVTVQHKKLRTPLNYILLNLAVADLFMVLGGFTSTLYTSLHGYFVFGPTGCNLQGFFATLGGEIALWSLVVLAIERYVVVCKPMSNFRFGENHAIMGVAFTWVMALACAAPPLAGWSRYIPEGLQCSCGIDYYTLKPEVNNESFVIYMFVVHFTIPMIIIFFCYGQLVFTVKEAAAQQQESATTQKAEKEVTRMVIIYVIAFLICWVPYASVAFYIFTHQGSCFGPIFMTIPAFFAKSAAIYNPVIYIMMNKQFRNCMLTTICCGKNPLGDDEASATVSKTETSQVAPA
modifications: phosphorylated by GRK1; sites not stated
notes: human rhodopsin; also called GRK-phosphorylated Rho; source: HEK293S cells, purified on amylose beads; phosphorylated in the assay mixture by 80 nM purified GRK1 with 40 μM ATP; not shown: His8, N-terminal, kept

Tests used:
[1] = molecular target: T1, β2-adrenergic receptor fused to a TEV cleavage site and tTA (human, UniProt P07550 1-413); assay: Tango assay (TEV protease proximity reporter); HTL cells co-transfected with receptor-TEV cleavage site-tTA and GRK-TEV protease fusions; luciferase reporter; vehicle or ligand overnight (ATR 10 μM for rhodopsin; paroxetine; DHE 0.1 μM, GR 127935 1 μM; SX 1 μM, ICI 118 551 1 μM); DNA amounts adjusted for similar expression; conditions: partners not purified
T1 construct: human β2-adrenergic receptor; also called β2AR; source: HTL cells, transfected (pcDNA3), in cells; not shown: TEV cleavage site (ENLYFQS), C-terminal, kept

[2] = molecular target: T2, serotonin receptor 5-HT1B fused to a TEV cleavage site and tTA (human, UniProt P28222 1-390); assay: as above; conditions: partners not purified
T2 construct: human serotonin receptor 5-HT1B; also called HTR1b; source: HTL cells, transfected (pcDNA3), in cells; not shown: TEV cleavage site (ENLYFQS), C-terminal, kept

[3] = molecular target: T3, Arrestin-biotin-MBP (human wild-type visual arrestin), purified (human, UniProt P10523 1-405, biotin on the tag); assay: AlphaScreen or HTRF; biotinylated WT arrestin and His8-tagged 4M Rho, with 80 nM purified GRK1 and 40 μM ATP added (indirect kinase assay); conditions: both partners purified
T3 construct: human visual arrestin (arrestin1); also called WT arrestin; arrestin1; source: Sf9 insect cells, purified on amylose beads; not shown: biotin tag, C-terminal, kept

Row | Binder | fold induction by the agonist salmeterol xinafoate over the vehicle control [1] [fold] | fold induction by the agonist dihydroergotamine over the vehicle control [2] [fold] | binding result [3]
1 | B1 | 2 | 2.5 | 
2 | B2 |  |  | binds
